Paper PMC4022642

Target: GST fusion of human TRESK cytoplasmic loop (amino acids 174-280) (human) (UniProt Q7Z418)
Test: pull-down; GST-TRESK 174-280 on glutathione agarose; mouse brain cytosol; four pairs of independent assays; anti-tubulin β3 Western blot with densitometry (ImageJ)

UniProt Q7Z418, sequence (Q7Z418 other isoform, or with tags, fused parts or gaps): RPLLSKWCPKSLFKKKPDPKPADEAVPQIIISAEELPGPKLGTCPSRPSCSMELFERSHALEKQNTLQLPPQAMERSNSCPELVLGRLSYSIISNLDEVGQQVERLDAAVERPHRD

densitometry counts of the anti-tubulin β3 immunoblot: 20500 counts
Substance: tubulin (mouse brain cytosol) (from UniProt P05213 1-451; Q9ERD7 1-450) (complex)
